These results are taken from US20230279126A1 (published 2023).

To fix the notation:
B1: hIL12Rb1_VHH1 (VHH)
VHH: QVQLQESGGGSVQAGGSLRLSCVASGYGYCGYDMSWYRQAPGKEREFVALITSDRSISYEDSVKARFIISRDNAANTGYLDMTRLTPDDTAIYYCKTSAAARESSWCRSRYRVASWGQGTQVTVSS
notes: Phagemid clone with his-tag, periplasmic extract
B2: hIL12Rb1_VHH17 (VHH)
VHH: QVQLQESGGGSVQAGGFLRLSCVASGYGYCGYDMSWYRQVPGKEREFVALITSDRSVSYEDSVKGRFSISRDNAKNTAYLEMNRLTPDDTAIYYCKTSTAARENNWCRSRYRIASWGQGTQVTVSS
notes: as for B1
B3: hIL12Rb1_VHH13 (VHH)
VHH: QVQLQESGGGSVQAGGFLRLSCVASGYGYCGYDMSWYRQAPGKEREFVALITSERVISYEDSVKGRFSISRDNAENTGYLEMNRLTPDDTAIYYCKTSAAARESSWCRSRYRVASWGQGTQVTVSS
notes: as for B1
B4: hIL12Rb1_VHH4 (VHH)
VHH: QVQLQESGGGSVQAGGSLRLSCVASGYGYCGYDMSWYRQTPGKEREFVALITSDRIASYEDSVKGRFIISRDNAKNTGYLDMTRVTPDDTAIYYCKTSAAARENSWCRSRYRVASWGQGTQVTVSS
notes: as for B1
B5: hIL12Rb1_VHH5 (VHH)
VHH: QVQLQESGGGSVQAGGFLRLSCVASGYGYCGYDMSWYRQVPGKEREFVALITSDRSVSYEDSVKGRFSISRDNAKNTAYLEMNRLTPDDTAVYYCKTSTAARENNWCRSRYRIAYWGQGTQVTVSS
notes: as for B1
B6: hIL12Rb1_VHH3 (VHH)
VHH: QVQLQESGGGSVQAGGSLRLSCVASGYSYCGYDMMWYRQAPGKEREFVALITSDYSIRYEDSVEGRFSISRDNAKNTGYLLMSNLTPADTAIYYCKTSTAARESSWCRSRYRVASWGQGTQVTVSS
notes: as for B1
B7: hIL12Rb1_VHH8 (VHH)
VHH: QVQLQESGGGSVQAGGSLRLSCVASGYSYCGYDMMWYRQAPGKEREFVALITSDYSIRYEDSVEGRFSISRDNAKNTGYLLMSNLTPADTAIYYCKTSTAARESSWCRSRYRVASWGQGTQVTVSS
notes: as for B1
B8: hIL12Rb1_VHH9 (VHH)
VHH: QVQLQESGGGSVQAGGSLRLSCVASGYSYCGYDMMWYRQAPGKEREFVALITSDYSIRYEDSVEGRFSISRDNAKNTGYLLMSNLTPADTAIYYCKTSTAARESGWCRSRYRVASWGQGTQVTVSS
notes: as for B1
B9: hIL12Rb1_VHH6 (VHH)
VHH: QVQLQESGGGSVQAGGSLRLSCAASRYTYTNNFMAWFRQAPGKEREGVAAIYTGDGYAYYFYSVKGRFTISQDNDENMLYLQMNSLKPEDTAMYYCAAMERRIGTRRMTENAEYKYWGQGTQVTVSS
notes: as for B1
B10: hIL12Rb1_VHH18 (VHH)
VHH: QVQLQESGGGSVQAGGSLRLSCAASRYTYTNNFMAWFRQAPGKEREGVAAIYTGDGYAYYFDSVKGRFTISQDNDKNMLYLQMNSLKPEDTAMYYCAAMERRSGRRRMTENAEYKYWGQGTQVTVSS
notes: as for B1
B11: hIL12Rb1_VHH22 (VHH)
VHH: QVQLQESGGGSVQAGGSLRLSCTASGYTYSSAFMAWFRQAPGKEREGVAAIYTRDGGTVYADSVKGRFTISQDNAKNTLYLQMNSLKAEDTAMYYCAAKIPQPGRASLLDSQTYDYWGQGTQVTVSS
notes: as for B1
B12: hIL12Rb1_VHH16 (VHH)
VHH: QVQLQESGGGSVQAGGSLRLSCTASGYTYSSAFMAWFRQAPGKEREGVAAMYTRDGGTVYADSVKGRFTISQDNAKNTLYLQIHTLKAEDTAMYYCAAKIPQPGRASLLDSQTYDYWGQGTQVTVSS
notes: as for B1
B13: hIL12Rb1_VHH2 (VHH)
VHH: QVQLQESGGGSVQAGGSLRLSCTASGYTYSSAFMAWFRQAPGKEREGVAAIYTRDGGTVYADSVKGRFTISQDNAKNILYLQMNSLKAEDTAMYYCAAKIPQPGRASLLDSQTYDYWGQGTQVTVSS
notes: as for B1
B14: hIL12Rb1_VHH21 (VHH)
VHH: QVQLQESGGGSVQAGGSLRLSCTASGYTYSSAFMAWFRQAPGKEREGVAAMYTRDGGTVYADSVKGRFTISQDNAKNTLYLQMNSLKTEDTAMYYCAAKIPQPGRASLLDSQTYDYWGQGTQVTVSS
notes: as for B1
B15: hIL12Rb1_VHH12 (VHH)
VHH: QVQLQESGGGSVQAGGSLRLSCTASGYTYSSAFMAWFRQAPGKEREGVAAIYTRDGGTVYADSVKGRFTISQDNAKNTLYLQMNSLKPEDTAMYYCAAKMPQPGRASLLDSQTYDYWGQGTQVTVSS
notes: as for B1
B16: hIL12Rb1_VHH20 (VHH)
VHH: QVQLQESGGGSVQAGGSLRLSCTASGYTYSSAFMAWFRQAPGKEREGVAAIYTRDGSPVYADSLKGRFTISQDNAKNTLHLQMNSLKPEDTAMYYCAAKIPEPGRISLLDSQTYDYWGHGTQVTVSS
notes: as for B1
B17: hIL12Rb1_VHH10 (VHH)
VHH: QVQLQESGGGSVQAGGSLRLSCAVSGYDYCGYDVRWYRQAPGKEREFVSGIDSDGSTSYADSVKGRFTISQDNAENTSYLHMFSLKPEDTAMYYCKTESPAGESAWCRNFRGMDYWGKGTQVTVSS
notes: as for B1
B18: hIL12Rb1_VHH11 (VHH)
VHH: QVQLQESGGGSVQAGGSLRLSCAVSGYDYCGYDVRWYRQAPGKEREFVSGIDSDGSTSYADSVKGRFTISQDNAENTSYLHMFSLKPEDTAMYYCKTESPAGESAWCRNFRGMDYWGKGTQVTVSS
notes: as for B1
B19: hIL12Rb1_VHH15 (VHH)
VHH: QVQLQESGGGSVQAGGSLRLSCAVSGYDYCGYDVRWYRQAPGKEREFVSGINSDGSTSYADSVKGRFTISQDNAENTSYLHMFSLKPEDTAMYYCKTESPAGESAWCRNFRGMDYWGKGTQVTVSS
notes: as for B1
B20: hIL12Rb1_VHH7 (VHH)
VHH: QVQLQESGGGSVQAGGSLRLSCAVSGYDYCGYDVRWYRRAPGKEREFVSGIDSDGSTSYADSVKGRFTISQDNAENTSYLHMFSLKPEDTAMYYCKTESPAGESAWCRNFRGMDYWGKGTQVTVSS
notes: as for B1
B21: hIL12Rb1_VHH19 (VHH)
VHH: QVQLQESGGGSVQAGGSLRLSCAVSGYDYCGYDVRWYRQAPGKEREFVSGINSDGSTSYADSVKGRFTISQDNAENTSYLHMFSLKPEDTAMYYCKTEGPAGESAWCRNFRGMDYWGKGTQVTVSS
notes: as for B1
B22: hIL12Rb1_VHH14 (VHH)
VHH: QVQLQESGGGSVQAGGSLRLSCAVSGYDYCGYDVRWYRRAPGKEREFVSGIDSDGSTSYADSVKGRFTISQDNAENTSYLHMFSLKPEDTAMYYCKTESPAGESAWCRNFRGMDYWGKGTQVTVSS
notes: as for B1
B23: mIL12Rb1_VHH1 (VHH)
VHH: QVQLQESGGGSVQAGGSLRLSCTASGYTYSSAFMAWFRQAPGKEREGVAAIYTRDGGTVYADSVKGRFTISQDNAKNTLYLQMNSLKAEDTAMYYCAAKIPQPGRASLLDSQTYDYWGQGTQVTVSS
notes: as for B1
B24: mIL12Rb1_VHH6 (VHH)
VHH: QVQLQESGGGSVQAGGSLRLSCTASGYTYSSAFMAWFRQAPGKEREGVAAIYTRDGSPVYADSLKGRFTISQDNAKNTLHLQMNSLKPEDTAMYYCAAKIPEPGRISLLDSQTYDYWGHGTQVTVSS
notes: as for B1
B25: mIL12Rb1_VHH22 (VHH)
VHH: QVQLQESGGGSVQAGGSLRLSCTASGYTYSSAFMAWFRQAPGKEREGVAAIYTRDGGTVYADSVKGRFTISQDNAKNILYLQMNSLKAEDTAMYYCAAKIPQPGRASLLDSQTYDYWGQGTQVTVSS
notes: as for B1
B26: mIL12Rb1_VHH17 (VHH)
VHH: QVQLQESGGGSVQAGGSLRLSCTASGYTYSSAFMAWFRQAPGKEREGVAAMYTRDGGTVYADSVKGRFTISQDNAKNTLYLQIHTLKAEDTAMYYCAAKIPQPGRASLLDSQTYDYWGQGTQVTVSS
notes: as for B1
B27: mIL12Rb1_VHH18 (VHH)
VHH: QVQLQESGGGSVQAGGSLRLSCTASGYTYSSAFMAWFRQAPGKEREGVAAMYTRDGGTVYADSVKGRFTISQDNAKNTLYLQMNSLKTEDTAMYYCAAKIPQPGRASLLDSQTYDYWGQGTQVTVSS
notes: as for B1

The first test deals with T1, extracellular domain of human IL12RB1 (hIL12Rb1 ECD) (human, UniProt P42701 24-545).
T1 construct: The immunogen was a fusion of the ECD with the human IgG1 hinge and Fc; also called IL12Rβ1; CD212
The experiment in a line: periplasmic extract ELISA (PE-ELISA) of phage clones, colorimetric. The essentials: (§1)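 Camels were immunized in turn with fusion proteins joining the human or mouse receptor extracellular domain to a human IgG1 hinge and Fc, and their VHH domains were recovered. RNA from the blood was transcribed, and a VHH fragment of approximately 400 bp was cloned into a phagemid in E. coli, in frame with a his-tag. The resulting phage library was biopanned over multiple rounds against either the human or the mouse extracellular domain. Selective binding of single clones was read colorimetrically by periplasmic extract ELISA in 96-well plates.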
A general note: In an ELISA, binding on a coated surface is turned into a signal by an enzyme label.
B1: the binding result was “binds”.

In the case of B2, the binding result is recorded as “binds”.

In the case of B3, the binding result was “binds”.

Consider B4, for which the binding result is reported as “binds”.

Regarding B5, the binding result is “binds”.

For the molecule B6, the binding result is “binds”.

B7: the binding result is given as “binds”.

For the molecule B8, the binding result is on record as “binds”.

B9: the binding result is “binds”.

Take B10: the binding result is “binds”.

For B11, the binding result is recorded as “binds”.

Regarding B12, the binding result is “binds”.

For the molecule B13, the binding result is “binds”.

For the molecule B14, the binding result is on record as “binds”.

For B15, the binding result is recorded as “binds”.

Take B16: the binding result is given as “binds”.

As for B17, the binding result is given as “binds”.

Consider B18, for which the binding result is recorded as “binds”.

For the molecule B19, the binding result is on record as “binds”.

Take B20: the binding result was “binds”.

Turning to B21, the binding result is on record as “binds”.

For B22, the binding result was “binds”.

The target of another test is T2, extracellular domain of mouse IL12RB1 (mIL12Rb1 ECD) (mouse, UniProt Q60837 20-565).
T2 construct: The immunogen was a fusion of the ECD with the human IgG1 hinge and Fc; also called mIL12Rb1 ECD antigen
T2 sequence: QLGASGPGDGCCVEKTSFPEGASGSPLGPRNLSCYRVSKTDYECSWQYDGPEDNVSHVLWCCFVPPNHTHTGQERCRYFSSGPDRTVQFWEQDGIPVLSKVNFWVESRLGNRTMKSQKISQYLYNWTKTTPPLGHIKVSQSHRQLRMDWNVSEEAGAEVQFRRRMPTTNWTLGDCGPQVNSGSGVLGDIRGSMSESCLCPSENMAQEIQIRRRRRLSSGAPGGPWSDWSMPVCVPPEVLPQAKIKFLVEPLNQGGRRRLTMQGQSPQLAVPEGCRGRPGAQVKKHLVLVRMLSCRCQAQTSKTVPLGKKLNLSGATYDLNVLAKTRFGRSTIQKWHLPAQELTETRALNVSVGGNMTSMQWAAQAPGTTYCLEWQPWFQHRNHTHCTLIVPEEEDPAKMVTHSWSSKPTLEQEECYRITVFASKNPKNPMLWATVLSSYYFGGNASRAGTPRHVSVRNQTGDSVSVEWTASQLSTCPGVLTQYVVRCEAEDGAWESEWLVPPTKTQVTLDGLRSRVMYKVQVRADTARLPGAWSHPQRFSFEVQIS
The description is as above. The essentials:
as §1
Turning to B23, the binding result is “binds”.

On to B24, for which the binding result is given as “binds”.

In the case of B25, the binding result is “binds”.

Take B26: the binding result is “binds”.

B27: the binding result is reported as “binds”.
